Changes are numbered by the printed parent chain.

B1: 69A02 (bispecific TCE of Table 29) (bispecific antibody, V domains shown)
VH: QVTLKESGPTLVKPTQTLTLTCSFSGFSITTSGVSVGWIRQPPGKALEWLALIYWDDDKRYSPSLKSRLTITRDTSKNQVVLTMTNMDPVDTATYYCAHAPRYTPGGYFDYWGQGTLVTVSS
VL: ETTLTQSPATLSVSPGETATLSCRASQSVSSNLAWYQQKPGQAPRLLIYGASTRATGIPATFSGSGSGTEFTLTISSLQSEDFAIYYCQQYKNWPPAFGGGTELEIK
B2: 82H02 (bispecific TCE of Table 29) (bispecific antibody, V domains shown)
VH: EVQLLESGGGLVQPGGSLRLSCAASGFTFTSYAMSWVRQAPGKGLEWVSTISGSGGGTYYTDSVKGRFTISRDNSKNTLYLQMNSLRAEDTAVYYCAQGSSIFDYWGQGTLVTVSS
VL: EIVLTQSPATLSLSPGERATLSCRASQSVSSYLAWYQQKPGQAPRLLIYDASNRATGIPARFSGSGSGTDFTLTISSLEPEDFAVYYCQQRSNWPPCTFGQGTRLEIK
B3: 82H02 VL1.07 (high) (bispecific TCE of Table 29) (bispecific antibody, V domains shown)
VH: B2 VH
VL: B2 VL with C97S
notes: also called 82H02 v1.07
B4: 82H02 VL1.02 (bispecific TCE of Table 29) (bispecific antibody, V domains shown)
VH: B2 VH
VL: B2 VL with C97R
notes: also called 82H02 v1.02
B5: 82H02 VL1.03 (bispecific TCE of Table 29) (bispecific antibody, V domains shown)
VH: B2 VH
VL: B2 VL with C97Q
notes: also called 82H02 v1.03
B6: 82H02 VL1.06 (low) (bispecific TCE of Table 29) (bispecific antibody, V domains shown)
VH: B2 VH
VL: B2 VL with C97F
notes: also called 82H02 v1.06
B7: 82H02 VL1.04 (bispecific TCE of Table 29) (bispecific antibody, V domains shown)
VH: B2 VH
VL: not shown
notes: also called 82H02 v1.04
B8: 82H02 VL1.05 (bispecific TCE of Table 29) (bispecific antibody, V domains shown)
VH: B2 VH
VL: B2 VL with C97L
notes: also called 82H02 v1.05
B9: 82H02 VL1.08 (bispecific TCE of Table 29) (bispecific antibody, V domains shown)
VH: B2 VH
VL: B2 VL with C97Y
notes: also called 82H02 v1.08
B10: 82H02 VL1.09 (bispecific TCE of Table 29) (bispecific antibody, V domains shown)
VH: B2 VH
VL: B2 VL with C97V
notes: also called 82H02 v1.09
B11: Parental 1F3.5 (CD3-binding bispecific TCE of Table 30) (bispecific antibody, V domains shown)
VH: EVQLVESGGGLVQPGGSLRLSCAASGFTFNTYAMNWVRQAPGKGLEWVARIRSKYNNYATYYADSVKDRFTISRDDSKNTLYLQMNSLRAEDTAVYYCVRHGNFGNSYVSWFAYWGQGTMVTVSS
VL: QAVVTQEPSLTVSPGGTVTLTCRSSTGAVTTSNYANWVQQKPGQAPRGLIGGTNKRAPGTPARFSGSLLGGKAALTLSGVQPEDEAEYYCALWYSNLWVFGGGTKLTVLG
notes: also called IF3.5
B12: 1F3.5 VL1.00-VH1.05 (CD3-binding bispecific TCE of Table 30) (bispecific antibody, V domains shown)
VH: EVQLVESGGGLVQPGGSLKLSCAASGFTFNTYAMNWVRQASGKGLEWVGRIRSKYNNYATYYADSVKGRFTISRDDSKNTAYLQMNSLKTEDTAVYYCVRHGNFGNAYVSFAYWGQGTMVTVSS
VL: B11 VL
notes: CD3 Fab arm only; VL1.00 read as the parental 1F3.5 light chain
B13: 1F3.5 VL1.01-VH1.04 (CD3-binding bispecific TCE of Table 30) (bispecific antibody, V domains shown)
VH: B11 VH with R19K, P41S, A49G, D68G, R89K, A90T, N106E
VL: B11 VL with A2T, R23A, G48A
notes: CD3 Fab arm only
B14: 1F3.5 VL1.01-VH1.05 (CD3-binding bispecific TCE of Table 30) (bispecific antibody, V domains shown)
VH: B12 VH
VL: B11 VL with A2T, R23A, G48A
notes: CD3 Fab arm only
B15: 1F3.5 VL1.00-VH1.04 (CD3-binding bispecific TCE of Table 30) (bispecific antibody, V domains shown)
VH: B11 VH with R19K, P41S, A49G, D68G, R89K, A90T, N106E
VL: B11 VL
notes: as for B12
B16: 1F3.5 VL1.00-VH1.03 (high) (CD3-binding bispecific TCE of Table 30) (bispecific antibody, V domains shown)
VH: B11 VH with R19K, P41S, A49G, D68G, R89K, A90T, N106A
VL: B11 VL
notes: CD3 Fab arm only; VL1.00 read as the parental 1F3.5 light chain; also called 1F3.5-VH1.03
B17: 1F3.5 VL1.01-VH1.01 (low) (CD3-binding bispecific TCE of Table 30) (bispecific antibody, V domains shown)
VH: B11 VH with R19K, P41S, A49G, D68G, R89K, A90T
VL: B11 VL with A2T, R23A, G48A
notes: CD3 Fab arm only; also called 1F3.5-VH1.01-VL1.01
B18: 1F3.5 VL1.01-VH1.02 (CD3-binding bispecific TCE of Table 30) (bispecific antibody, V domains shown)
VH: B11 VH with R19K, P41S, A49G, D68G, L81A, R89K, A90T
VL: B11 VL with A2T, R23A, G48A
notes: CD3 Fab arm only
B19: 1F3.5 VL1.01-VH1.00 (CD3-binding bispecific TCE of Table 30) (bispecific antibody, V domains shown)
VH: B11 VH
VL: B11 VL with A2T, R23A, G48A
notes: CD3 Fab arm only; VH1.00 read as the parental 1F3.5 heavy chain
B20: 1F3.5 VL1.01-VH1.03 (CD3-binding bispecific TCE of Table 30) (bispecific antibody, V domains shown)
VH: B11 VH with R19K, P41S, A49G, D68G, R89K, A90T, N106A
VL: B11 VL with A2T, R23A, G48A
notes: CD3 Fab arm only
B21: 1F3.5 VL1.00-VH1.02 (CD3-binding bispecific TCE of Table 30) (bispecific antibody, V domains shown)
VH: B11 VH with R19K, P41S, A49G, D68G, L81A, R89K, A90T
VL: B11 VL
notes: as for B12
B22: 1F3.5 VL1.00-VH1.01 (CD3-binding bispecific TCE of Table 30) (bispecific antibody, V domains shown)
VH: B11 VH with R19K, P41S, A49G, D68G, R89K, A90T
VL: B11 VL
notes: CD3 Fab arm only

In the first experiment the target is T1, recombinant human ROR1 extracellular domain protein (human, UniProt Q01973 30-406).
T1 construct: also called Human/Cyno ROR1
As to the kind of experiment: biolayer interferometry, TCE immobilized. The source says:
(§1) This example describes biolayer interferometry experiments that were used to determine the binding affinities of bispecific TCEs and sequence optimized variants of the present disclosure.
In general, Kd refers to the concentration at which binding is half-saturated. As for B1, the Kd was 3.5 nM.

B2: the dissociation constant (Kd) was 5.4 nM.

Regarding B3, the Kd was 4.2 nM.

For the molecule B4, the Kd is 122 nM.

Regarding B5, the Kd was 475 nM.

As to B6, the Kd was 99 nM.

With B7, the Kd worked out at 50.7 nM.

B8: the Kd was 154 nM.

Turning to B9, the Kd is 166 nM.

Turning to B10, the Kd was 160 nM.

The target in a further experiment is T2, recombinant human CD3ε/δ heterodimer SEED Fc fusion protein (human, UniProt P07766 23-126; P04234 22-105).
T2 construct: not shown: SEED Fc arm, not specified
T2 sequence (P07766 23-126, stated change not applied, chain 1 of 2): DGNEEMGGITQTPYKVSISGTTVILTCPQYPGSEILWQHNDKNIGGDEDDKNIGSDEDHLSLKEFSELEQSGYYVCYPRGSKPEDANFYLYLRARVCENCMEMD
T2 sequence (P04234 22-105, stated change not applied, chain 2 of 2): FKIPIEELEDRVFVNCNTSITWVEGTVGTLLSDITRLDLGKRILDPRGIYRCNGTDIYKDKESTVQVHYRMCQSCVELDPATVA
As to the kind of experiment: biolayer interferometry, TCE immobilized.
From the text: as §1
A general note: Biolayer interferometry detects binding as a change in optical thickness at a sensor tip.
On to B11, for which the Kd came out at 2.7 nM.

As to B12, the Kd worked out at 8.2 nM.

With B13, the Kd was 74.2 nM.

B14: the Kd is 59.2 nM.

With B15, the Kd turned out to be 6.5 nM.

On to B16, for which the Kd turned out to be 4.6 nM.

For the molecule B17, the Kd came out at 42 nM.

As to B18, the Kd is 47.1 nM.

On to B19, for which the Kd came out at 62.3 nM.

Regarding B20, the Kd was found to be 84.8 nM.

For B21, the Kd was determined as 5.5 nM.

For B22, the Kd turned out to be 2.9 nM.

The values are drawn from patent publication US20240343800A1 (Merck KGaA, published 2024).
